Values of other authors, collected in paper PMC2730980.

Molecular target: Synaptotagmin II (Rattus norvegicus) (UniProt P29101)
Sequence of UniProt P29101 (P29101 whole entry): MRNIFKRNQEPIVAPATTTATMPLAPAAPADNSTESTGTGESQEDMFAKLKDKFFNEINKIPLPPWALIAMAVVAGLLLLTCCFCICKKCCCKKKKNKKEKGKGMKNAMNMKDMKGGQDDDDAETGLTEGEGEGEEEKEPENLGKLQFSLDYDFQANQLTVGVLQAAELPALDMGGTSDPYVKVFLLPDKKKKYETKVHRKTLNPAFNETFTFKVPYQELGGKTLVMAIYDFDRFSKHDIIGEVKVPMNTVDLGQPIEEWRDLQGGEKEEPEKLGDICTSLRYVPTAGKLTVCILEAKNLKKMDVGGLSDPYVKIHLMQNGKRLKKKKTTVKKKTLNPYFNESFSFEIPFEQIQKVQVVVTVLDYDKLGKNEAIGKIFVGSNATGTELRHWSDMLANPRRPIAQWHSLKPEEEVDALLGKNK

Substance: Botulinum neurotoxin type B (from UniProt P10844)
- Kd: 0.4 nM
